The source of these data is the nanobody polyreactivity screen of Harvey et al. (2022).

This data set is described as follows: yeast display, Sf9 membrane polyspecificity reagent, FACS + sequencing; frameworks hold sequencing errors. A digest of the protocol:
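Nanobodies came from a synthetic yeast display library in Saccharomyces cerevisiae BJ5465, induced with galactose for 36–48 hours and stained for 1 hour at 4 °C with 10% biotinylated, detergent-solubilized Sf9 membrane reagent. Cells were enriched on streptavidin microbeads and then FACS-sorted, with low and high (top ~1%) gates set on anti-HA fluorescence for expression and streptavidin fluorescence for reagent binding. Each polyreactivity label reflects the gate a clone came from. Genes were amplified by colony PCR, sequenced by MiSeq 2 × 250 and filtered by CDR length.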
As for “QVQLVESGGGLVQAGGSLRLSCAASVSIFRWNTMGWYRQAPGKERELVASITFTGGRTYYADSVKGRFTISRDNAKNTVYLQMNSLKPEDTAVYYCNGLVVTYPKWKYDYWGQGTQVTVSS”, the “polyreactivity (PSR sort gate)” value is “high polyreactivity”.
Take “QVQLVESGGGLVQAGGSLRLSCAASVSIFSSYAMGWYRQAPGKERELVAAISRSGGRTYYADSVKGRFTISRDNAKNTVFLQMNSLKPEDTAVYYCNAYAQVSYGTYDYWGQGTQVTVSS”: the “polyreactivity (PSR sort gate)” value is “high polyreactivity”.
The value for “QVQLVESGGGLVQAGGSLRLSCAASVSIFWLYAMGWYRQAPGKERELVAAITYSGGRTYADSVKGRFTISRDNAKNTVYVQMISLKPEDTEVIYCATVFRYRKSWGYDYWGQGTQVTVSS” was “low polyreactivity”; that for “QVQLVESGGGLVQAGGSLRLSCAASVSIFYFYAMGWYIQAPGKERELVAAITDGGSTHYADSVKGRFTISRDNAKNTVYLQMNSLKPEDTAVYYCAAQWHYYLGSGYQYDYWGQGTQVTVSS” was “low polyreactivity”.
The result for “QVQLVESGGGLVQAGGSLRLSCAASVSIYPDYAMGWYRQAPGKERELVAAISRSGGSTYYADSVKGRFTISRDNAKNTVYLQMNSLKREDTAVYDCNARPGSRYYGYRLYYYWGQGTQVTVSS” reads “high polyreactivity”; that for “QVQLVESGGGLVQAGGSLRLSCAASVSTFPFYSMGWYRQAPGKERELVAAITSGGSTYADSVKGRFTISRDNAKNTVYLQMNSLKPEDTAVYYCAASWPRWWRFGYWGQGTQVTVSS”, “low polyreactivity”; that for “QVQLVESGGGLVQAGGSLRLSCAASVSTYIYYAMGWYRQAPGKERELVAAISQSGGSTYYADSVKGRFTISRDNAKNTVYLQMNSLKPEDTAVYYCAARLRHLGLGRYGFDYWGQGTQVTVSS”, “high polyreactivity”.
The result for “QVQLVESGGGLVQAGGSLRLSCAASVYIFWINAMGWYRQAPGKDRELVAAIRYSTGRTYYADSVKGRFTISRDNAKNTVYLQMNSLKPEDTAVYYCNARSWYIRGSQEYYYWGQGTQVTVSS” reads “high polyreactivity”.
Regarding “QVQLVESGGGLVQAGGSLRLSCAATGFIFFYYAMGWYRQAPGKERELFAVIDRSGGTTYYADSVKGRFTISRDNAKNTVYLQMNSLKPEDTAVYYCNADDFTYPSGWGFIYDYWGQGTQVTVSS”, the “polyreactivity (PSR sort gate)” value was “low polyreactivity”.
As to “QVQLVESGGGLVQAGGSLRLSCAATGFTFGFNDMGWYRQAPGKERELVAAISWSGGRTYYADSVKGRFTISRDNAKNTVYLQMNSLKPEDTAVYDCAAEGVGRADRNKEYDYWGQGTQVTVSS”, the “polyreactivity (PSR sort gate)” value is “high polyreactivity”.
The result for “QVQLVESGGGLVQAGGSLRLSCAATGFTFNRYTMGWYRQAPGKERELVASISVRGSRTYSADSVKGRFTISRDNAKNTVYLQMNSLKPEDTAVYYCNAKTYVYYRLRSYYYWGQGTQVTVSS” reads “high polyreactivity”; that for “QVQLVESGGGLVQAGGSLRLSCAATGGIFNVYVMGWYRHAPGKESEFVAAITWRGGSTYYADSVKGRFTISRDNAKNTVYLQMNSLKPEDTAVYYCNADAPFQSSSDGYQVEYWGQGTQVTVSS”, “low polyreactivity”.
On to “QVQLVESGGGLVQAGGSLRLSCAATGGTFEFYTMGWYRQAPGKERELVAVINASGDSTYYADSVKGRFTISRDNAKNTVYLQMNSLKPEDTAVYYCAADNQGYTTKWRREYYYWGQGTQVTVSS”, for which the “polyreactivity (PSR sort gate)” value was “low polyreactivity”.
Take “QVQLVESGGGLVQAGGSLRLSCAATGIIFGDNAMGWYRQAPGKERELVAAFTIGGTSTYNADSVKGRFTISRDNAKNTVYLQMNSQKPEDTAVYYCAKTILYDCDYWGQGTQVTVSS”: the “polyreactivity (PSR sort gate)” value is recorded as “low polyreactivity”.
The result for “QVQLVESGGGLVQAGGSLRLSCAATGLNFAYNAMGWYRQAPGKERELVAAITGGGDGTYYADSVKGRFTISRDNAKNTVYLQMNSLKPEDTAVYYCADDYKYVGSEYGYWGQGTQVTVSS” reads “low polyreactivity”; that for “QVQLVESGGGLVQAGGSLRLSCAATGLTFPQYAMGWYRQAPGKEREIVAAIRSSDDRTYYADSVKGRFTISRDNAKNTVYLQLNSLKPEDTAVYYCAARVGKIGYKPRMDYWGQGTQVSVSS”, “high polyreactivity”.
The result for “QVQLVESGGGLVQAGGSLRLSCAATGNIFADYAKGWYRQAPGKERELVAAITWSGDDTYYADSVKGRFTISRDNAKNTVYLQMNSLKPEDTAVYYCAAGYWRTSVDFDYWGQCTQVTVSS” reads “low polyreactivity”; that for “QVQLVESGGGLVQAGGSLRLSCAATGNIFRYNAMGWYRQAPGKERELFAAISSVGTTNYADSVKGRFTISRDNEKNTVYLQMNSLKPEDTAVYYVAAVAYQGGYLNDNWGQGTQVTLSS”, “low polyreactivity”; that for “QVQLVESGGGLVQAGGSLRLSCAATGRIFGSNAMGWYRQAPGKEREVVAAITRGGSTNYADSVKGRFTISRDNAKNTVYLQMNSLKPEDTAVYYCAVRWYRKYNFWGQGTQVTVSS”, “high polyreactivity”.
For the sequence “QVQLVESGGGLVQAGGSLRLSCAATGRIFQRNAMGWSRQEPGKEREFVAAISSRGGTTYYADSVKGRFTISRDNAKNTVYLQMNSLKQEDTAVYYCAAGYVHLYYFHEYYWGQGTQVTVSS”, the “polyreactivity (PSR sort gate)” value is reported as “high polyreactivity”.
As for “QVQLVESGGGLVQAGGSLRLSCAATGRIFYGYAMGWYRQAPVKERELVAAITRGVSTYYADSVKGRFTISRDNAKNTVYLQMNSLKPEDTAVYYCAIERRVRMDSWGQGTQVTVSS”, the “polyreactivity (PSR sort gate)” value was “low polyreactivity”.
The result for “QVQLVESGGGLVQAGGSLRLSCAATGRIYVTNAMGWYRQAPGKERELVAAITESGGSTYYADTVKGRFTISRDNAKNTVYLQMNSLKPEDTAVYYCAADYLNGEEDYWGQGTQVTVSS” reads “low polyreactivity”.
The value for “QVQLVESGGGLVQAGGSLRLSCAATGRNFVYNAMGWYRQAPGKERELVAAITWGGGSTYYADSVKGRFTISRDYAKNTVYLQMNSLKPEDTAVYYCAARGGSYPQDHSPYYEYDYWGQGTQVTVSS” was “low polyreactivity”; that for “QVQLVESGGGLVQAGGSLRLSCAATGRTFRYYAMGWYRQAPGKERELVAAISSGGSTNYADSVKGRFTISRDNAKNTVYLQMNSLKPEDTAVYYCAALWSGNKFNYWGQGTQVTVSS” was “low polyreactivity”.
The result for “QVQLVESGGGLVQAGGSLRLSCAATGRTFSEYVMGWYRQAPGKERELVAAISDRGTRTYYSDSVKGRFTISRDNAKNNVYLPMNSLKPEDTAVYYCYAGLTYNHDPYDYWGQGTQVTVSS” reads “high polyreactivity”; that for “QVQLVESGGGLVQAGGSLRLSCAATGRTFSIYAMGWYRQAPGKERELVARIRGGGSTNYADSVKGRFTISRDNAKNTVYLQMNSLKPEDTAVYYCATVYWRYGAHSYRYYYWGQGTQVTVSS”, “high polyreactivity”; that for “QVQLVESGGGLVQAGGSLRLSCAATGRTFTYYALGGYRQAPGKQRELVAAISTSGGSTYYADSVKGRFTISRDNAKNTVYLQMNSLKPEDTAVYYCAASPYLRFLYGGFGYWGLGTQVTVSS”, “high polyreactivity”.
In the case of “QVQLVESGGGLVQAGGSLRLSCAATGRTFYQYAKGWSRQAPGKERELVAAISRRGGSTYYADSVKGRFTISRDNAKNTVYLQMNSLKPEDTAVYYCAAQRQYGKFDYWGQGTQVTVSS”, the “polyreactivity (PSR sort gate)” value is “high polyreactivity”.
For the sequence “QVQLVESGGGLVQAGGSLRLSCAATGSIFDYYAMGWYRQAPGKERELVAAISLSGGITYYADSVKGRFTISRDNAKNTVYLQMNSLKPEDTEVYYCAADAIDVLYEYDRYDRRYEYWGQGTQVTVSS”, the “polyreactivity (PSR sort gate)” value is given as “low polyreactivity”.
The result for “QVQLVESGGGLVQAGGSLRLSCAATGSIFGDNAMGWYRQAPGKARELVAAITSSGGSTYYADSVKGRFTISRDNAKNTVYLQMNSLKPEDTAVYYCNADFGYGWYLRYDYWGQGSQVTVSS” reads “high polyreactivity”; that for “QVQLVESGGGLVQAGGSLRLSCAATGSIFPPYGMGWYRRAPGKERELVAVITRSGGSTYYADSVKGRFTISRDNAKNTVYLQMNSLKPEDTAVYYCNVDSTTTFVYVVVSVVYEYDYWGQGTQVTVSS”, “low polyreactivity”.
On to “QVQLVESGGGLVQAGGSLRLSCAATGSIFSFYAMGWYRQAPGKERELVAGIRWRGGTSTFYADSVKGRFTISRDKAKNTVYLHMNSLKPEDTAVYYCAAKRRTGGNGYWGQGTQVTVSS”, for which the “polyreactivity (PSR sort gate)” value is “high polyreactivity”.
The result for “QVQLVESGGGLVQAGGSLRLSCAATGSIFSSNAMGWYRQAPGKERELVAAIDYSGGRTYYADSVKGRFTISRDYEKNTVYLQMNSLKPEDTAVYYCAKLIPVHSRYDFWGQGTQVTVSS” reads “low polyreactivity”.
With “QVQLVESGGGLVQAGGSLRLSCAATGSIFVLYAMGWYRQAPGKERALVAAISKSTGSTYYADSVKGRFTISRDNAKNTVYLQMNSLKPEDTAVYYCAARGRQYRYYDLDYWGQGTQVTVSS”, the “polyreactivity (PSR sort gate)” value is given as “low polyreactivity”.
Consider “QVQLVESGGGLVQAGGSLRLSCAATGSIFYFYTMGWYRQAPGKERELVAAIDWSSGSTYYADSVKGRFTISRDNAKNTVYLQMNSLKPEDTAVYYCNARDYWTGRHDYWGQGTQVTVSS”, for which the “polyreactivity (PSR sort gate)” value is “low polyreactivity”.
The value for “QVQLVESGGGLVQAGGSLRLSCAATGSIIQWNAMGWYRQAPGKERELVAAISWSGTRTYFADSVKGRFTISRDNAKNTVYLQMNSLKPEDTAVYYCAFRGGKPTYRYDYWGQGTQVTVSS” was “high polyreactivity”; that for “QVQLVESGGGLVQAGGSLRLSCAATGSISGYYAMGWYRQAPGKERELVASIRYTGARTYYADSVKGRFTISRDNAKNTVYLQMNSLKPEDTAVYACAADVKRDRVWGGDYWGQGTQVTVSS” was “low polyreactivity”; that for “QVQLVESGGGLVQAGGSLRLSCAATGSLFLPYGMGWYSQAPGKERELVAAFSRGGGSTYYADSVKGRFTISRDNAKNTVYLQMNSLKPEDTAVYYCAVDNLKSRAQSLDGFDYWGQGTQVTVSS” was “high polyreactivity”.
“QVQLVESGGGLVQAGGSLRLSCAATGSTFRPYAMGWYRQAPGKERELVAAITTGGSTNYADSVKGRFTISRDNAKNTVYLQMNSLKPEDTAVYYCNADYDVLNWGYYDWGYDYWGQGTQVTVSS”: the “polyreactivity (PSR sort gate)” value is given as “low polyreactivity”.
On to “QVQLVESGGGLVQAGGSLRLSCAATGSTFTAYAMAWYRQAPGKESELVAAIRRIGGDTYYADSVKGRFTISRDNAKNTVYLQMNSLKPEDSAVYYCAAFRWRSPQYWYHSMDHWGQGSQVTVSS”, for which the “polyreactivity (PSR sort gate)” value is given as “low polyreactivity”.
